Measurements published in patent US20110093983A1, “ALGAL GLYCEROL-3 PHOSPHATE ACYLTRANSFERASE” (National Research Council of Canada, priority 2008, published 2011).
“Also recorded” adds a separate entry of the source.

Experiments:
[1] = test system: yeast gat1 mutant; assay: Lipidomic analysis of phospholipids from yeast gat1 transformed with TpGPAT or GAT1, fed EPA or DHA; format: cell-based, Saccharomyces cerevisiae; conditions: tandem mass spectrometer lipidomics
Description: FIG. 4 graphically depicts the results of the lipidomic analysis (fatty acid composition) of the lipids from yeast gat1 mutants transformed with either TpGPAT1 or GAT1. Yeast cells expressing TpGPAT or yeast GAT1 were fed with EPA (20:5) or DHA (22:6) upon induction of the genes. Total lipids from the yeast cells were extracted and subjected to lipidomic analysis using a tandem mass spectrometer. The results are presented as the molar ratio of EPA- or DHA-containing phospholipids (PC, PE, PS, PI) in the total phospholipids.
To further determine the role of TpGPAT in the incorporation of VLGPUFAs into glycerolipids, yeast gat1 strain transformed with TpGPAT or GAT1 under the control of the GAL1 promoter was grown in the presence of EPA (20:5) or DHA (22:6) upon induction of the genes. Phospholipids were extracted and subjected to lipidomic analysis using a tandem mass spectrometer (testing conducted by the Kansas Lipidomics Research Center). […] It was thus concluded that TpGPAT has a role in controlling PUFA accumulation in glycerolipid.

[2] = test system: Arabidopsis thaliana; assay: Fatty acid and oil content analysis of T2 seeds from TpGPAT transgenic Arabidopsis; format: in vivo; conditions: transgenic Arabidopsis lines (GW), Napin promoter
Method: FIG. 5 graphically depicts the results of the analysis of the fatty acid 16:0 content of T2 seeds from TpGPAT transgenic Arabidopsis. Fatty acid analysis was performed on TpGPAT transformed Arabidopsis seeds. Fatty acid composition (as molar percentage) was determined in the seed oil extracted from 200 T2 seeds of 13 TpGPA:pSE transformed Arabidopsis lines (GW4-GW17). pSE129A empty plasmid transformed wild-type Arabidopsis was used as a control.
FIG. 7 graphically depicts the total oil content of TpGPAT transformed Arabidopsis seeds. Oil contents (as percentage of dry weight) were determined in 200 T2 seeds of the 13 TpGPA:pSE transformed Arabidopsis lines (GW4-12; GW14-17). Wild-type Arabidopsis was used as a control (Con).
The full length coding region of the TpGPAT gene was amplified using pfu DNA polymerase and primers designed with two restriction sites (KpnI and XbaI) added for subsequent cloning. Then, the PCR product was digested and inserted in a plant transformation vector (pSE129A) under the control of a seed-specific promoter (Napin). The binary vector was introduced by electroporation into Agrobacterium tumefaciens strain GV3101 containing helper plasmid pMP90 (Koncz and Schell, 1986). […]

[3] = GPAT activity assay of microsomal membrane fractions from yeast gat1 mutant expressing TpGPAT; format: biochemical, Saccharomyces cerevisiae
Method: FIG. 2 depicts GPAT activity of TpGPAT1 expressed in yeast gat1 mutant. The microsomal membrane fractions prepared from lysates of the induced yeast cells harboring TpGPAT1 or empty vector pYES2.1 were assayed for GPAT activity with 400 μM [^14C]glycerol 3-phosphate (2.5 nCi/nmol), 45 μM palmitoyl-CoA, 75 mM Tris-HCl, pH 7.5, 1 mM DTT, and 2 mM MgCl2 for 10 min at room temperature. After extraction of the phospholipid products, the radioactivity was measured by scintillation count.
FIG. 3 depicts substrate specificity of TpGPAT1. The microsomal membrane fractions prepared from lysates of the induced yeast cells harboring TpGPAT1 or empty vector pYES2.1 were assayed for GPAT activity with 400 μM [^14C]glycerol 3-phosphate (2.5 nCi/nmol) and different acyl-CoAs as acyl donor. After extraction of the phospholipid products, the radioactivity was measured by scintillation count. […]
Enzyme Assays: GPAT assays were conducted at 30° C. for 10 min. in a 200-pL reaction mixture containing 40 mM Hepes, pH 7.0, 400 pM ^14C-glycerol-3-phosphate (2.5 nCi/nmol), 67.5 pM palmitoyl-CoA and/or stearoyl-CoA or other fatty acyl donors, 1 mM DTT, 2 mM MgCl2, and 2.5 mg/mL BSA unless stated otherwise. […] The formed products were subjected to scintillation counting for radioactivity and thin layer chromatography analysis as described. […]

B1: TpGPAT1: membrane-bound glycerol-3-phosphate acyltransferase from T. pseudonana, 674 amino acids, SEQ ID NO:2 (nucleotide SEQ ID NO:1) (protein, listed as Thalassiosira pseudonana)
chain: MGVEKKGTMMSELDYTKAQLAFFYIVVLLSLDMLNPVKIFLHVFPAIKSWHIATFAIACMSYIFIVNLRELLYFATKVFFHSILSIFFNDVTVVGRENIPSHGPVIFTSNHANQFMDGLMIMCTCQRTISYLVADKSWNRPIIGHLAWMMGGVPVKRAQDSACKGTGKISIDLNALAGSDAVINVVGKGTSFTSQIKAGDKIRLPNNAIGIKVESIESDESMSLKVEDGVAEVLSSHPFPEYVTYDILPRIDQKDVYQNVLEKLASGGTIGIFPEGGSHDRTDLLPLKVGVALIAYSELEKDGINVPIVPVGLNYFRAHRFRGKATVEFGSPTYIEPSTLADYKKGGADKRRVCNDLLARIENSMRSVIVSVPDFETLQTIHAARRLYRQDGRNETAEQRQDMGRRFAEGYKRVLLQLGGEPPEEWLSLQSRILAYQKELNELGIRDYQVVGLDHEEVELGSESQGHSKADTVLHRMNVFGHIVHLFVIAVLAALPAMLLNLPVGLASRIYSNRRRKVALAASKVKVKGYDVMLSERVLACIVLVPSLWVVYGLLLSLFTSLDGPSLAVCFTCFPLFSYWSIMATESGMVDIKDLRPYVMRMIPSARRRLAALPATRKALRSDLRAMIKKIGPSLGDIYYEKDLNWQKIQMETKRMSMEELDPAQKDEAAKKEE
With B1 the “Molar percentage of DHA in phospholipids” value ([1]; yeast gat1 fed DHA (22:6)) was 0.563%, the “Molar percentage of EPA in phospholipids” value ([1]; yeast gat1 fed EPA (20:5)) was 3.696% and the “16:0 content of T2 seeds compared to non-transformed control” value [2] was “More than half of the identified transgenic lines (GW) showed an increase of 16:0”. For the same molecule, the “Substrate specificity for fatty acyl donors” value ([3]; different acyl-CoAs as acyl donors (14:0, 16:0, 16:1, 18:0, 18:1, 22:6)) was “highly specific for 16:0; also recorded: highest activity toward 16:0; also recorded: highly specific for saturated C16 fatty acids” and the “GPAT activity versus control cells transformed with empty pYES2.1 vector” value ([3]; microsomal membrane fractions, yeast gat1, palmitoyl (16:0)-CoA as acyl donor) was “about seven”.
